Experimental data taken from article PMC10397247.

Assays:
Test in all cases: two-hybrid library CCNG1;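 note: natural log of median RNA to DNA barcode read ratio; higher means stronger binding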
4H568-bA = molecular target: T1, 4H568-bA
T1 chain: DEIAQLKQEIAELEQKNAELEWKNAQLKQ

4H3782-bA = molecular target: T2, 4H3782-bA
T2 chain: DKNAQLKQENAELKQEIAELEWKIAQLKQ

4H3189-bA = molecular target: T3, 4H3189-bA
T3 chain: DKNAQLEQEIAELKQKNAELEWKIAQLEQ

4H338-bA = molecular target: T4, 4H338-bA
T4 chain: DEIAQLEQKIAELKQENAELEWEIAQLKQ

4H2618-bA = molecular target: T5, 4H2618-bA
T5 chain: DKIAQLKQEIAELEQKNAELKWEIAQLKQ

4H797-bA = molecular target: T6, 4H797-bA
T6 chain: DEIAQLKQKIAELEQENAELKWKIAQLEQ

4H4001-bA = molecular target: T7, 4H4001-bA
T7 chain: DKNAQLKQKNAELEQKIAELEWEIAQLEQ

4H3855-bA = molecular target: T8, 4H3855-bA
T8 chain: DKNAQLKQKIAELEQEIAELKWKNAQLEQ

4H454-bA = molecular target: T9, 4H454-bA
T9 chain: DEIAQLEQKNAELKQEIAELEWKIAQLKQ

4H462-bA = molecular target: T10, 4H462-bA
T10 chain: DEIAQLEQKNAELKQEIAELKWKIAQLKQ

4H953-bA = molecular target: T11, 4H953-bA
T11 chain: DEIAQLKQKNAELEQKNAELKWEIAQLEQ

4H2610-bA = molecular target: T12, 4H2610-bA
T12 chain: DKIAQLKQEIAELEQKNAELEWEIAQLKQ

4H370-bA = molecular target: T13, 4H370-bA
T13 chain: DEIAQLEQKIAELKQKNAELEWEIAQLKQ

4H3606-bA = molecular target: T14, 4H3606-bA
T14 chain: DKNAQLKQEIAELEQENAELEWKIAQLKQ

4H883-bA = molecular target: T15, 4H883-bA
T15 chain: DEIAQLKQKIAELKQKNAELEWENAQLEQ

4H717-bA = molecular target: T16, 4H717-bA
T16 chain: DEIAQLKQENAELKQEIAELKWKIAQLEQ

4H72-bA = molecular target: T17, 4H72-bA
T17 chain: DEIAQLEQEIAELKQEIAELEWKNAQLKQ

4H331-bA = molecular target: T18, 4H331-bA
T18 chain: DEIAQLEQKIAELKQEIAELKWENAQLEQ

4H754-bA = molecular target: T19, 4H754-bA
T19 chain: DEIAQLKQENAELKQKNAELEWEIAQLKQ

4H3112-bA = molecular target: T20, 4H3112-bA
T20 chain: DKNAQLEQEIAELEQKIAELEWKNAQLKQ

4H2576-bA = molecular target: T21, 4H2576-bA
T21 chain: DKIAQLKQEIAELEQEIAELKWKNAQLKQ

4H2667-bA = molecular target: T22, 4H2667-bA
T22 chain: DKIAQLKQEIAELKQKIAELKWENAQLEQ

4H2442-bA = molecular target: T23, 4H2442-bA
T23 chain: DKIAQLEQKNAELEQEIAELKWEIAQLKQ

4H607-bA = molecular target: T24, 4H607-bA
T24 chain: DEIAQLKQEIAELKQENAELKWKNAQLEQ

4H3427-bA = molecular target: T25, 4H3427-bA
T25 chain: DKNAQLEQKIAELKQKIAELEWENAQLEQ

4H908-bA = molecular target: T26, 4H908-bA
T26 chain: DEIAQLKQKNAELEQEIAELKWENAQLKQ

4H967-bA = molecular target: T27, 4H967-bA
T27 chain: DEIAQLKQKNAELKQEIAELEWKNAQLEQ

4H1845-bA = molecular target: T28, 4H1845-bA
T28 chain: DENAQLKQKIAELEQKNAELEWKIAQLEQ

4H3185-bA = molecular target: T29, 4H3185-bA
T29 chain: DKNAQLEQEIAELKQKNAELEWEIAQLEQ

4H918-bA = molecular target: T30, 4H918-bA
T30 chain: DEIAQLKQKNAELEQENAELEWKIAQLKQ

4H1446-bA = molecular target: T31, 4H1446-bA
T31 chain: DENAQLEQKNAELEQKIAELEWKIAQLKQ

4H1828-bA = molecular target: T32, 4H1828-bA
T32 chain: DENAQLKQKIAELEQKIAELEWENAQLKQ

4H2729-bA = molecular target: T33, 4H2729-bA
T33 chain: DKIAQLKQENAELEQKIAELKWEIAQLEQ

4H3843-bA = molecular target: T34, 4H3843-bA
T34 chain: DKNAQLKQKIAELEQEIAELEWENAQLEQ

4H687-bA = molecular target: T35, 4H687-bA
T35 chain: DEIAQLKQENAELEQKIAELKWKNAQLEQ

4H3354-bA = molecular target: T36, 4H3354-bA
T36 chain: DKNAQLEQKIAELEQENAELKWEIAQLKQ

4H2697-bA = molecular target: T37, 4H2697-bA
T37 chain: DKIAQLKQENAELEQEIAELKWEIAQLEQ

4H264-bH = molecular target: T38, 4H264-bH
T38 chain: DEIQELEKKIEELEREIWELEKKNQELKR

4H3297-bH = molecular target: T39, 4H3297-bH
T39 chain: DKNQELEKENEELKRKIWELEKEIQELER

4H264-bA = molecular target: T40, 4H264-bA
T40 chain: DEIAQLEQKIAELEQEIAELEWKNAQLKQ

4H3364-bH = molecular target: T41, 4H3364-bH
T41 chain: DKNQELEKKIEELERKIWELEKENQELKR

4H2518-bH = molecular target: T42, 4H2518-bH
T42 chain: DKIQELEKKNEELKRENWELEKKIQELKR

4H2162-bH = molecular target: T43, 4H2162-bH
T43 chain: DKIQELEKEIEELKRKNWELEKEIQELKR

4H349-bH = molecular target: T44, 4H349-bH
T44 chain: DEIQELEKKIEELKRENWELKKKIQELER

4H730-bH = molecular target: T45, 4H730-bH
T45 chain: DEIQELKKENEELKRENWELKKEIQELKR

4H2859-bH = molecular target: T46, 4H2859-bH
T46 chain: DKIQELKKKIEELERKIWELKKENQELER

4H2253-bH = molecular target: T47, 4H2253-bH
T47 chain: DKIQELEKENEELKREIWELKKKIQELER

4H796-bH = molecular target: T48, 4H796-bH
T48 chain: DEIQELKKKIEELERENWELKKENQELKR

4H932-bH = molecular target: T49, 4H932-bH
T49 chain: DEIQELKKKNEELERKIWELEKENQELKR

4H3381-bH = molecular target: T50, 4H3381-bH
T50 chain: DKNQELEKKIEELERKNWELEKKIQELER

4H2760-bH = molecular target: T51, 4H2760-bH
T51 chain: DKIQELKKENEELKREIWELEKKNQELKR

4H235-bH = molecular target: T52, 4H235-bH
T52 chain: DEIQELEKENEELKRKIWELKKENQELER

4H2233-bH = molecular target: T53, 4H2233-bH
T53 chain: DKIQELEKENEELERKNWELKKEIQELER

4H2585-bH = molecular target: T54, 4H2585-bH
T54 chain: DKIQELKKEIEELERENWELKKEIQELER

4H3041-bH = molecular target: T55, 4H3041-bH
T55 chain: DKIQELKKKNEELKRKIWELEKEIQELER

4H2931-bH = molecular target: T56, 4H2931-bH
T56 chain: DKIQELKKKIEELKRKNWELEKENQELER

4H949-bH = molecular target: T57, 4H949-bH
T57 chain: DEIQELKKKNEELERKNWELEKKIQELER

4H56-bH = molecular target: T58, 4H56-bH
T58 chain: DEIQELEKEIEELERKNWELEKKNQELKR

4H2444-bH = molecular target: T59, 4H2444-bH
T59 chain: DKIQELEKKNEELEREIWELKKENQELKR

Binder: DENAQLEQKNAELEQKIAELEWKIAQLKQ [4H1446-bA]
- interaction score (4H568-bA): -0.418
- interaction score (4H3782-bA): 0.586
- interaction score (4H3189-bA): -0.621
- interaction score (4H338-bA): -0.241
- interaction score (4H2618-bA): 0.00602
- interaction score (4H797-bA): -1.42
- interaction score (4H4001-bA): 1.86
- interaction score (4H3855-bA): 0.209
- interaction score (4H454-bA): -0.131
- interaction score (4H462-bA): -0.194
- interaction score (4H953-bA): -0.416
- interaction score (4H2610-bA): -0.647
- interaction score (4H370-bA): 0.183
- interaction score (4H3606-bA): 0.144
- interaction score (4H883-bA): 0.0122
- interaction score (4H717-bA): -0.295
- interaction score (4H72-bA): 1.16
- interaction score (4H331-bA): 1.79
- interaction score (4H754-bA): -0.817
- interaction score (4H3112-bA): 0.505
- interaction score (4H2576-bA): 1.12
- interaction score (4H2667-bA): 0.0853
- interaction score (4H2442-bA): -1.04
- interaction score (4H607-bA): -0.535
- interaction score (4H3427-bA): 0.256
- interaction score (4H908-bA): -0.405
- interaction score (4H967-bA): -0.635
- interaction score (4H1845-bA): -0.389
- interaction score (4H3185-bA): -0.0587
- interaction score (4H918-bA): -0.0235
- interaction score (4H1446-bA): 0.569
- interaction score (4H1828-bA): -0.523
- interaction score (4H2729-bA): 1.08
- interaction score (4H3843-bA): 2.01
- interaction score (4H687-bA): -0.607
- interaction score (4H3354-bA): -0.413
- interaction score (4H2697-bA): -0.0949

Binder: DKIQELEKEIEELKRKNWELEKEIQELKR [4H2162-bH]
- interaction score (4H264-bH): 0.0138
- interaction score (4H3297-bH): 0.0958
- interaction score (4H264-bA): 0.1
- interaction score (4H3364-bH): 0.498
- interaction score (4H2518-bH): 1
- interaction score (4H2162-bH): 0.161
- interaction score (4H349-bH): 0.54
- interaction score (4H730-bH): -1.99
- interaction score (4H2859-bH): 0.783
- interaction score (4H2253-bH): -0.234
- interaction score (4H796-bH): -0.188
- interaction score (4H932-bH): -0.531
- interaction score (4H3381-bH): 0.0641
- interaction score (4H2760-bH): 0.202
- interaction score (4H235-bH): 0.377
- interaction score (4H2233-bH): 0.284
- interaction score (4H2585-bH): 0.942
- interaction score (4H3041-bH): 0.641
- interaction score (4H2931-bH): 0.798
- interaction score (4H949-bH): -1.64
- interaction score (4H56-bH): 0.668
- interaction score (4H2444-bH): 0.28
